Laboratory results as given in patent publication US20200234789A1, “DESIGNED PROTEINS FOR LIGAND BINDING” (THE REGENTS OF THE UNIVERSITY OF CALIFORNIA, priority 2017, published 2020).

What was measured:
[1] = Porphyrin binding to apo-protein, electronic absorption spectra ((CF3)4PFe loading)
Description: FIG. 9. Scaled absorption spectra of (CF3)4PM/PS1 complexes, M=Zn^2+, Fe^2+. Loading of (CF3)4PFe into PS1 was ˜40-50%, likely due to the extreme insolubility of the porphyrin. The featured bands at 550-650 nm indicate that (CF3)4PFe is in a homogenous environment in the ferrous state. […] The peak at 423 nm is also indicative of a homogenous binding environment. The absorption spectra were scaled to reflect the relative extinction coefficients of the porphyrins. Buffer=50 mM NaPi, 100 mM NaCl, pH 7.5.
A 2-fold excess of the cofactor (CF3)4PZn was added from a 4 mM DMSO stock solution to a 50 mM NaPi, 100 mM NaCl, pH 7.5 buffer with apo-protein (Note that final DMSO concentrations were kept <1%.). Buffer solution of apo-PS1 protein was heated for 5 minutes at 50° C., (CF3)4PZn was then added from the DMSO stock solution, the resultant mixture was vortexed for 5 seconds, and placed back in the heat block at 50° C. for 15 minutes, with vortexing every 3 minutes. The protein/cofactor solution was then spun at 14000×g in a Amicon Ultra-0.5 mL centrifuge filter for 10 min, three times, replacing the buffer to 0.5 mL after each 10 min spin. Finally, the protein solution was spun for 4 min at 12000×g in an Amicon ultrafree-MC GV filter (UFC30GV0S). The holo-PS1 sample was then used for spectroscopic experiments immediately afterward, and diluted to an appropriate concentration if necessary. […]

[2] = Size exclusion chromatography (analytical gel filtration), oligomeric state; type: physicochemical; conditions: 100 μM; 50 mM NaPi, 150 mM NaCl, pH 7.0; superdex 75 5/150
Source text: FIG. 7A-7B. […] FIG. 7A: Analytical ultracentrifugation. Solutions of apo- and holo-PS1 were centrifuged at speeds ranging from 25,000 r.p.m. to 45,000 r.p.m. and monitored by absorbance at 280 nm. Parameters were globally fit to the data. Single-species fitting agrees well with the data over the entire range and yields the molecular weight of apo-PS1 […] and holo-PS1 12.24±0.91 kD, which agrees well with the 12.86 kD weight of PS1. […] Partial specific volumes were estimated from SEDNTERP^15 for amino acid side chains. FIG. 7B: Analytical gel filtration analysis of apo- and holo-PS1. Detection wavelengths are labeled as the same color as their respective curves. […] The small peak near 1.05 ml elution volume in holo-PS1 is unbound (excess), aggregated porphyrin eluting in the void volume of the superdex 75 5/150 column. Samples were run at concentrations of 100 μM and 37 μM for apo and holo, respectively, in 50 mM NaPi, 150 mM NaCl, pH 7.0 buffer.
Gel filtration profiles were obtained using a Superdex 75 5/150 column on an FPLC system (GE Healthcare AKTA). […] The approximate molecular weight (MWapp) was calculated from a standard curve obtained with the GE LMW standard protein kit. […]

[3] = Circular dichroism: temperature and GnHCl induced unfolding; type: physicochemical; conditions: at 95° C.; CD at 222 nm; 50 mM NaPi, 100 mM NaCl, pH 7.5
Description: (§1) FIGS. 3A-3D. Biophysical characterization of apo- and holo-PS1. FIG. 3A: Electronic absorption and emission spectra of (CF3)4PZn/PS1 holo-protein and (CF3)4PZn in toluene solvent. […] FIG. 3B: Determination of KD by apo-PS1 titration into a buffer solution (100 mM NaCl, 50 mM NaPi, pH 7.5) of (CF3)4PZn with 1% w/v octyl-b-D-glucopyranoside. […] FIG. 3C: Circular dichroism (CD) spectra of apo- and holo-PS1 in 50 mM NaPi, 100 mM NaCl, pH 7.5 as a function of temperature. The transitions appear reversible based on the fact that the spectra are identical after cooling to room temperature. Units are in molar residue ellipticity. […] FIG. 3D: Pump-probe transient absorption spectra of (CF3)4PZn bound in the interior of holo-PS1 at 21° C. and 100° C. […] Inset exemplifies identical transient dynamics (primarily intersystem crossing from S1 to T1) at ΔAbs.=482 nm (scaled). Experimental conditions: solvent=50 mM NaPi, 100 mM NaCl, pH 7.5; excitation wavelength=600±5 nm; magic-angle polarization between pump and probe pulses; pump-probe cross-correlation of ˜250 fs.
FIG. 8. Temperature and GnHCl induced unfolding of apo-PS1. CD spectra at 222 nm of apo-PS1 as a function of temperature and denaturant (Guanidine HCl, GnHCl) concentration in 50 mM NaPi, 100 mM NaCl, pH 7.5 buffer. The midpoint for GnHCl-induced unfolding at 95° C. was approximately 4.5 M. […]

[4] = Porphyrin binding to apo-protein, electronic absorption spectra ((CF3)4PZn loading)
Description: as §1
FIG. 10. Absorption spectra of (CF3)4PZn/PS1 and (CF3)4PZn/PS2 complexes. […] Experimental conditions: buffer=100 mM NaCl, 50 mM NaPi, pH 7.5.
A 2-fold excess of the cofactor (CF3)4PZn was added from a 4 mM DMSO stock solution to a 50 mM NaPi, 100 mM NaCl, pH 7.5 buffer with apo-protein (Note that final DMSO concentrations were kept <1%.). Buffer solution of apo-PS1 protein was heated for 5 minutes at 50° C., (CF3)4PZn was then added from the DMSO stock solution, the resultant mixture was vortexed for 5 seconds, and placed back in the heat block at 50° C. for 15 minutes, with vortexing every 3 minutes. The protein/cofactor solution was then spun at 14000×g in a Amicon Ultra-0.5 mL centrifuge filter for 10 min, three times, replacing the buffer to 0.5 mL after each 10 min spin. Finally, the protein solution was spun for 4 min at 12000×g in an Amicon ultrafree-MC GV filter (UFC30GV0S). The holo-PS1 sample was then used for spectroscopic experiments immediately afterward, and diluted to an appropriate concentration if necessary. Binding of (CF3)4PFe was carried out in the same fashion, with the exception that the porphyrin was first dissolved in a stock of DMSO/CHCl3.
Electronic absorption spectra were collected using a Shimadzu UV-1700 UV-Vis spectrophotometer or Cary 5000 spectrophotometer. Steady-state emission spectra were obtained on FLS920P spectrophotometer (Edinburgh Instruments Ltd. Livingston, UK) in 1 cm quartz optical cells. The steady-state emission spectra were corrected using the correction factor generated by the manufacturer.

B1: PS1: de novo designed porphyrin-binding four-helix bundle protein; designed sequence SEQ ID NO:1, expressed His-tag-cleaved sequence SEQ ID NO:2 (protein)
chain: SEFEKLRQTGDELVQAFQRLREIFDKGDDDSLEQVLEEIEELIQKHRQLFDNRQEAADTEAAKQGDQWVQLFQRFREAIDKGDKDSLEQLLEELEQALQKIRELAEKKN
binding of (CF3)4PFe (ferrous iron-derivative of the porphyrin) [1]: binds | loading of (CF3)4PFe ([1]; 50 mM NaPi, 100 mM NaCl, pH 7.5): 40-50% | degree of dimerization relative to the monomer peak [2]: < 5% | midpoint for GnHCl-induced unfolding [3]: approximately 4.5 M | porphyrin loading ([4]; (CF3)4PZn, based on absorbance at 280 nm and 423 nm, 100 mM NaCl, 50 mM NaPi, pH 7.5): 100% | time of complex formation ([4]; adding (CF3)4PZn from organic solution to aqueous PS1): within seconds | stability of the (CF3)4PZn complex over time ([4]; complex with (CF3)4PZn): stable for over a year
